In US20040092720A1 (US Dept. of Health and Human Services, published 2004):
Like-named read-outs stand apart in the source and are kept apart here.

B1: Peptide A42 (peptide)
peptide: AAGSHPSRWAGMARRLLLRSV
notes: alanine-scan variant of the domain I 21-mer
B2: Peptide A44 (peptide)
peptide: AAGSHPSRWAAMGRRLLLRSV
notes: as for B1
B3: Peptide A47 (peptide)
peptide: AAGSHPARWAGMGRRLLLRSV
notes: as for B1
B4: Peptide A43 (peptide)
peptide: AAGSHPSRWAGAGRRLLLRSV
notes: as for B1
B5: Peptide A46 (peptide)
peptide: AAGSHPSAWAGMGRRLLLRSV
notes: as for B1
B6: Peptide A45 (peptide)
peptide: AAGSHPSRAAGMGRRLLLRSV
notes: as for B1

Tests used:
recombinant human IL-6 [1] = target: T1, recombinant human IL-6 (human, UniProt P05231 30-212, labeled with radioactive iodine); experiment: radioiodinated IL-6 on peptide array
T1 construct: Labeled probe in solution, added to wells that carry the synthetic peptides; also called IL-6 ligand; Interleukin-6
Description: Synthetic peptide arrays were constructed in 96-well microtiter plates in accordance with the method set forth in WO 91/02714 (Saxinger), and used to test the binding of recombinant human IL-6 that had been labeled with radioactive iodine (radiolabeling by standard methods). After incubating the radiolabeled IL-6 ligand in a well with each synthetic peptide, a washing step was performed to remove unbound label, and the relative level of radioactivity remaining in each well of the plate was evaluated to determine the relative affinity of each peptide for IL-6 ligand.

recombinant human IL-6 [2] = target: T1, recombinant human IL-6; experiment: radioiodinated IL-6 on peptide array; remark: listed apart in the source

Binder	Counts/minute bound (recombinant human IL-6 [1]) [counts/minute]	Counts/minute bound (recombinant human IL-6 [2]) [counts/minute]
STPSLTTKAVLLVRKFQNS [Peptide B19]	12200	
PRSTPSLTTKAVLLV [Peptide B7]	3400	
LVRKFQNS [Peptide B31]	2520	
NLSCIVNEGKKMRCEWDGGRETHL [Peptide E14]		1170
PRSTPSLTTKAVLLVRKFQ [Peptide B3]	7080	
VLLVRKFQNS [Peptide B29]	9100	
TTKAVLLVRKFQNS [Peptide B24]	7010	
PRSTPSLTTK [Peptide B12]	1310	
LTTKAVLLVRKFQNS [Peptide B23]	12200	
PRSTPSLTTKAVLLVRKFQN [Peptide B2]	7930	
TPSLTTKAVLLVRKFQNS [Peptide B20]	12900	
PRSTPS (also called PRSTPS) [Peptide B16]	1020	
PRSTPSLTTKAVLLVRKF [Peptide B4]	4690	
NANYIVWKTNHFTIPKEQYTIINR [Peptide E7]		1330
MLTLQTWVVQALFIFLTTESTGEL [Peptide E1]		3360
ISPESPVVQLHSNFTAVCVLKEKC [Peptide E4]		1500
RSTPSLTTKAVLLVRKFQNS [Peptide B18]	13000	
PSLTTKAVLLVRKFQNS [Peptide B21]	13300	
ISGLPPEKPKNLSCIVNEGKKMRC [Peptide E13]		1200
B1	12300	
B2	11900	
B3	11300	
B4	13500	
B5	9520	
B6	8040	

Binder	Counts/minute bound (recombinant human IL-6 [1]) [counts/minute]	Counts/minute bound (recombinant human IL-6 [2]) [counts/minute]
LEQNVYGITIISGLPPEKPKNLSC [Peptide E12]		1670
KAVLLVRKFQNS [Peptide B27]	5600	
IINRTASSVTFTDIASLNIQLTCN [Peptide E9]		1630
PRSTPSLTTKAVL [Peptide B9]	1400	
KEKCMDYFHVNANYIVWKTNHFTI [Peptide E6]		1440
PRSTPSLTTKAVLLVRK [Peptide B5]	3960	
VRKFQNS (also called VRKFQNS) [Peptide B32]	1180	
TGELLDPCGYISPESPVVQLHSNF [Peptide E3]		1300
HSNFTAVCVLKEKCMDYFHVNANY [Peptide E5]		1290
SCTVDYSTVYFVNIEVWVEAENAL [Peptide E19]		3320
AVLLVRKFQNS [Peptide B28]	9070	
PRSTPSL (also called PRSTPSL) [Peptide B15]	985	
FTDIASLNIQLTCNILTFGQLEQN [Peptide E10]		3380
KMRCEWDGGRETHLETNFTLKSEW [Peptide E15]		1570
DCKAKRDTPTSCTVDYSTVYFVNI [Peptide E18]		1550
PRSTPSLTTKA [Peptide B11]	1240	
HFTIPKEQYTIINRTASSVTFTDI [Peptide E8]		1140
ALFIFLTTESTGELLDPCGYISPE [Peptide E2]		1530
PRSTPSLT [Peptide B14]	930	
ETHLETNFTLKSEWATHKFADCKA [Peptide E16]		1040
PRSTPSLTTKAVLLVR [Peptide B6]	4360	
PRSTPSLTTKAV [Peptide B10]	1220	
PRSTPSLTT [Peptide B13]	1050	
KSEWATHKFADCKAKRDTPTSCTV [Peptide E17]		1410
LLVRKFQNS [Peptide B30]	7200	
